The values below come from US20180009859A1, “PHARMACOLOGICAL MODULATORS OF GABAA RECEPTORS AND THEIR USE” (priority 2015, published 2018).

Numbering of substitutions follows the chain as printed. Read-outs that look alike come from different tables or passages of the source.

Data set [1] concerns GABAA receptors in SPMs. Type of data set: binding, rat. To be noted: for displacing ^125I-rMmTX2 (in words): SPMs; for Ki: read-out: equilibrium inhibition constant (Ki).
Data set [2] deals with GABAA receptors in SPMs. As to the kind of experiment: [^3H]muscimol competition for binding to SPMs. Details: species or system rat.
Data set [3] deals with GABAA receptors in rat brain synaptic plasma membranes (SPMs) (rat). Kind of data set: competition with 125I-rMmTX2 for rat brain SPMs.
The target is the same in data set [4].
For data set [5] the target is unchanged. The source holds these as a separate data set.
For data set [6] the target is unchanged. The source holds these as a separate data set.
For data set [7] the target is unchanged. Kind of data set: ratio of the kinetic constants, radioligand binding to rat brain SPMs.
The subject of data set [8] is hippocampal neurons. It is filed as cell-based, mouse. To be noted: 100 μM PTX, n=5.
In data set [9] the target is GABAA receptors in rat brain synaptic plasma membranes (SPMs) (rat). Kind of data set: competition with 40 nM [3H]muscimol for rat brain SPMs, nonlinear fit for an allosteric modulator.
For data set [10] the target is unchanged. As to the kind of experiment: competition with 40 nM [3H]muscimol for rat brain SPMs.
In data set [11] the target is GABAA receptors of mouse hippocampal neurons (mouse). Kind of data set: cell-based or functional assay.
Data set [12] deals with hippocampal neurons. As to the kind of experiment: Calcium imaging of hippocampal neurons (Ca^2+ oscillations). It is filed as cell-based, rat. To be noted: 0.3 μM muscimol alone, n=9.
Data set [13] relates to GABAA receptors of hippocampal neurons. It is filed as cell-based, mouse.
The target in data set [14] is GABAA receptors of hippocampal neurons. To be noted: reported values; cited from earlier work.
Data set [15] has as its system mice. To be noted: injection into mouse brain.
The test system of data set [16] is mice. To be noted: for activity when injected intravenously: mouse, in vivo.
Data set [17] has as its system GABAA receptors in SPMs. Type of data set: binding, rat.
Data set [18] deals with α1β2γ2 GABAA receptor (Rattus norvegicus, UniProt P62813+P63138). It is filed as cell-based.
The mark [19] stands for this setting: sigmoidal dose-response fit, read-out: EC50 for reducing ^125I-MmTX2 binding to SPMs.
[20] abbreviates: read-out: EC50 for reducing ^125I-MmTX2 binding to SPMs.

α1β2γ2 GABAA receptor, sequence (P63138 25-474): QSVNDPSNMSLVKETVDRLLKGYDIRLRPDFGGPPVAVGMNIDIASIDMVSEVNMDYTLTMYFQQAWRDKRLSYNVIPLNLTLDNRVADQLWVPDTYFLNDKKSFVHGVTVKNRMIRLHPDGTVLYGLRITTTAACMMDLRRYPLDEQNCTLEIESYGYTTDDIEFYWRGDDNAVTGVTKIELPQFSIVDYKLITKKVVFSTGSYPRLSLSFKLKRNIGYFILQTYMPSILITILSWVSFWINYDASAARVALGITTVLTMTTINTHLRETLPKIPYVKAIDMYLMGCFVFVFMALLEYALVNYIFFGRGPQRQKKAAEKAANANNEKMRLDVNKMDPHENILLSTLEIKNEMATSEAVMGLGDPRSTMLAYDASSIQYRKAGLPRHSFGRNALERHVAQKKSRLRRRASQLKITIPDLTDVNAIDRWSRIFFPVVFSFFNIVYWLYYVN
α1β2γ2 GABAA receptor, sequence (P62813 28-455): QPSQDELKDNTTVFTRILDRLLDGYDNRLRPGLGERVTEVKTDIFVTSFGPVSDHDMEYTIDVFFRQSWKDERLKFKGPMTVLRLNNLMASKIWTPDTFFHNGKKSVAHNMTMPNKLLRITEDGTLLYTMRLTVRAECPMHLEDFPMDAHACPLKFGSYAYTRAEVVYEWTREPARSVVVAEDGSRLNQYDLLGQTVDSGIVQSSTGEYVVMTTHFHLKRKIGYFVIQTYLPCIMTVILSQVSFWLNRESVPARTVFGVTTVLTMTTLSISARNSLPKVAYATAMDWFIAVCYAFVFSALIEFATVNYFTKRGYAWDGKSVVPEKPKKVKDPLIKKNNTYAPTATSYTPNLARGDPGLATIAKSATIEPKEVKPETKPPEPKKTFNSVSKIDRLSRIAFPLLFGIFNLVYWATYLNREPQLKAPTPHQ
α1β2γ2 GABAA receptor, sequence (P18508 39-466, further chain): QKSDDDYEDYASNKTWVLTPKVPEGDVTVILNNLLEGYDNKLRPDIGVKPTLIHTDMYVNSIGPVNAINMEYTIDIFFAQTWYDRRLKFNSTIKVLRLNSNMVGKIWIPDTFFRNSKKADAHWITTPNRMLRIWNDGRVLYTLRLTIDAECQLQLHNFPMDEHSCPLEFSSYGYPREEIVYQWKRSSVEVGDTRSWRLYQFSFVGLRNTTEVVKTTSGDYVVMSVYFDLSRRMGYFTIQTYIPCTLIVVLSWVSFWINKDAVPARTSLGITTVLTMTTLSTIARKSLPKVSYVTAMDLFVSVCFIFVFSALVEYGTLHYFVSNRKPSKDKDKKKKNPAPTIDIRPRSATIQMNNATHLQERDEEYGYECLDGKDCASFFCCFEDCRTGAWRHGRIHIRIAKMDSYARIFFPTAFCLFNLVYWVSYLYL

With cardiotoxin [CTX], the “competition with ^125I-rMmTX2 for binding to SPMs” value (from here on “competition with ^125I-rMmTX2”) in data set [1] (ligand 10 μM) is recorded as “does not displace”.

With `O=C(O)C1=CCNCC1` [isoguvacine], in data set [1], the “nH (Hill slope) for reducing ^125I-MmTX2 binding” value worked out at 1.02±0.29. Besides, the EC50 – broadly, the concentration giving half of the maximal effect – in data set [1] (setting [19]) came to 275000 nM.

On to `NCc1cc(=O)[nH]o1` [[^3H]muscimol, reference compound], for which, in data set [2] (SPMs, read-out: Kd of [^3H]muscimol (constrained fit parameter)), the Kd stood at 1.75 nM.

As for `CCCC(C)C1(CC)C(=O)NC(=O)NC1=O` (stereo not shown) [pentobarbital], in data set [1], the “nH (Hill slope) for reducing ^125I-MmTX2 binding” value is listed as 0.98±0.07. For the same molecule, in data set [1] (setting [19]), the 50% effective concentration (EC50) was found to be 4800 nM.

For the molecule α-bungarotoxin, in data set [1], the “competition with ^125I-rMmTX2” value is “no competition is observed”.

For the molecule recombinant MmTX2 (rMmTX2) (peptide), in [3], the inhibitory constant (Ki) (as a rule, a measure of affinity in units of concentration, obtained from inhibition or displacement) amounted to 3.7 nM and the log Ki is -8.44.

Consider ^125I-rMmTX2 (peptide), for which, in data set [4], the Bmax (fmol/mg of SPM protein) came to 532, the Kd worked out at 0.76 nM and the ratio of Bmax with/without PTX was found to be 2.01. This molecule also showed a t1/2 of dissociation in data set [5] of 7.97 min. In data set [6], the Bmax (fmol/mg of synaptic protein) was found to be 264, the Kd came out at 0.51 nM, the half time duration of dissociation worked out at 8 min and the off-rate constant (koff) (usually the rate constant with which the complex falls apart) is 0.0014 s⁻¹. The kon (usually the second-order rate constant of association) in data set [6] was found to be 3.7e+06 M⁻¹ s⁻¹. Also, the Kd in [7] stood at 0.38 nM.

Turning to `NCCCC(=O)O` [GABA, γ-aminobutyric acid], in data set [1], the “nH (Hill slope) for reducing ^125I-MmTX2 binding” value is listed as 0.99±0.18.

Regarding `COc1cc2c3cc1Oc1cc(ccc1O)C[C@@H]1c4c(cc(OC)c(O)c4Oc4ccc(cc4)C[C@@H]3N(C)CC2)CC[N+]1(C)C` [d-tubocurarine], the “competition with ^125I-rMmTX2” value in data set [1] (ligand 10 μM) is recorded as “no competition is observed”.

Take picrotoxin [PTX]: in data set [1], the “nH for potentiating ^125I-MmTX2 binding capacity” value was “+1.05±1.16”. In addition, the EC50 in data set [1] (read-out: EC50 for potentiating ^125I-MmTX2 binding capacity to SPMs) amounted to 3700 nM. The action potential frequency result in data set [8] is recorded as “increases more dramatically when compared to sMmTX1”.

In the case of `NCC(=O)O` [glycine], in data set [1], the “competition with ^125I-rMmTX2” value was “does not compete”.

With recombinant MmTX1 (rMmTX1) (peptide), the Kd in [9] is 4.9 nM. This molecule also had a percent of the total [^3H]muscimol binding capacity competed in [10] of 40%. In addition, in data set [3], the Ki is 3 nM and the log Ki is -8.52. In data set [11], this molecule returned a factor of increase of the GABAA current elicited by 5 µM muscimol, with 1 nM rMmTX1 of 1.24 fold and a factor of increase of the GABAA current elicited by 5 µM muscimol, with 10 nM rMmTX1 of 1.22 fold.

For `NCc1cc(=O)[nH]o1` [muscimol, reference compound], the “nH (Hill slope) for reducing ^125I-MmTX2 binding” value in [1] is on record as 1.08±0.24. Besides, the EC50 in data set [1] (setting [19]) is 2100 nM; in data set [13] (muscimol alone, Hill fit, read-out: EC50 of GABAA receptor current amplitude) it was 4100 nM; in data set [14], 5400 to 24000 nM. Further, the “frequency of Ca^2+ spikes compared to cells perfused with extracellular saline solution” value in data set [12] was 98.0±4.8%. Besides, the IC50 (as a rule, the point on the concentration scale where inhibition reaches its midpoint) in [13] (100 nM rMmTX1, read-out: IC50 of muscimol for abolishing the potentiating effect of rMmTX1) was determined as 1100 nM. Moreover, in data set [13] (muscimol alone), the “nH coefficient of GABAA receptor current amplitude” value is 1.4.

As for “wild-type (WT) MmTX2, micrurotoxin2 purified from Micrurus mipartitus venom (peptide)”, in [3], the Ki came to 0.8 nM and the log Ki is -9.09.

As for `N[C@@H](CCC(=O)O)C(=O)O` [glutamate], the “competition with ^125I-rMmTX2” value in data set [1] (ligand 0.1 mM) is listed as “does not compete”.

Consider `CN1[C@@H]2CC[C@H]1C[C@@H](OC(=O)C(CO)c1ccccc1)C2` (stereo partly shown) [atropine], for which, in data set [1], the “competition with ^125I-rMmTX2” value is “does not compete”.

Consider `COc1ccc(-c2ccc(=N)n(CCCC(=O)O)n2)cc1` [gabazine], for which the “nH (Hill slope) for reducing ^125I-MmTX2 binding” value in data set [1] worked out at 1.00±0.07. The EC50 in data set [1] (setting [20]) turned out to be 200 nM.

As to `CN1C(=O)CN=C(c2ccccc2)c2cc(Cl)ccc21` [diazepam], the “nH (Hill slope) for reducing ^125I-MmTX2 binding” value in data set [1] is −0.96±0.07. Further, in data set [1] (setting [20]), the EC50 was 4900 nM.

B1: rMmTX1: recombinant MmTX1 from a periplasmic expression system (protein)
peptide: LTCKTCPFTTCPNSESCPGGQSICYQRKWEEHRGERIERRCVANCPAFGSHDTSLLCCTRDNCN
modifications: ends and bridges not checked
With B1, the “displacing ^125I-rMmTX2 (in words)” value in [1] was “equally potent”. Besides, the Ki in data set [1] stood at 3 nM. Moreover, the “effect on GABAA receptors in the absence of an agonist” value in data set [13] is “no effect”. In addition, in data set [13], the “increase of GABAA receptor-mediated currents” value was “up to 7 fold”. Besides, the “Factor of GABAA current increase” value in data set [13] (0.1 μM muscimol + 100 nM rMmTX1) is 7.9 ± 2.9 (n = 2); in data set [13] (0.3 μM muscimol + 100 nM rMmTX1), 7.5 ± 1.2 (n = 4); in data set [13] (1.0 μM muscimol + 100 nM rMmTX1) it was 1.9 ± 0.4 (n = 3); in [13] (3 μM muscimol + 100 nM rMmTX1) it was 1.4 ± 0.1 (n = 6); in data set [13] (30 μM muscimol + 100 nM rMmTX1), 1.0 ± 0.1 (n = 4); in data set [13] (50 μM muscimol + 100 nM rMmTX1), 1.0 ± 0.1 (n = 3). Besides, the “Cl^− current” value in [13] (0.1 μM muscimol together with 100 nM rMmTX1) was determined as 228±30 pA. Moreover, the “muscimol concentration at the half-maximal potentiating effect of rMmTX1” value in data set [13] (100 nM rMmTX1) is recorded as “about 1 μM”. Moreover, the inward current in [13] (0.3 μM muscimol together with 100 nM rMmTX1, neurons without response to muscimol alone) was determined as 439±51 pA. The “factor of GABAA current amplitude increase” value in data set [13] (5 μM muscimol + 1 nM rMmTX1, n=9) came to 1.24 ± 0.07; in data set [13] (5 μM muscimol + 10 nM rMmTX1, n=9), 1.22 ± 0.03; in data set [13] (5 μM muscimol + 100 nM rMmTX1, n=9), 1.99 ± 0.28; in data set [13] (5 μM muscimol + 300 nM rMmTX1, n=9), 1.69 ± 0.25. In [13] (muscimol concentrations greater than 10 μM), the “toxin-induced potentiation at high muscimol” value is given as “do not observe a toxin-induced potentiation”. Also, the “part of the total [^3H]muscimol binding capacity competed for” value in data set [2] (40 nM [^3H]muscimol) is given as “about 40%”. Further, the Kd in data set [2] (40 nM [^3H]muscimol, allosteric modulator fit, read-out: Kd in competition with [^3H]muscimol) was found to be 4.9 ± 0.2 nM. In data set [15], the LD50 (usually the dose at which mortality reaches 50%) is 0.027 mg/kg. Further, the behavioral signs entry in data set [15] is on record as “reduced activity combined with severe seizures”. In addition, the “activity when injected intravenously” value in data set [16] was “inactive”.

B2: ^125I-rMmTX2: MmTX2 radioactively labeled by lacto-peroxidase-catalyzed iodination (protein)
peptide: B1 peptide with R33H
modifications: ends and bridges not checked; also: 125I iodination (lactoperoxidase-catalysed), site not given here
On to B2, for which, in data set [17] (1 to 4 nM ligand, SPMs), the “second-order kinetic constant of association (k+1)” value is 3.7±0.5×10^6 M^−1 s^−1. Moreover, in data set [17] (dissociation after 1000-fold excess of unlabeled rMmTX2), the “first-order kinetic constant (k−1)” value turned out to be 0.0014 ± 0.0004 s⁻¹. The “half time duration of dissociation” value in data set [17] (dissociation from SPMs) is roughly 8 min. The Kd in data set [17] (in the presence of 1 mM PTX, read-out: Kd with PTX) was determined as 0.76 ± 0.18 nM; in data set [17] (ratio of both kinetic constants, read-out: true dissociation value (Kd=k−1/k+1)), 0.38 ± 0.05 nM; in data set [17] (read-out: Kd (saturation binding at equilibrium)), 0.51 ± 0.09 nM.

B3: MmTX1 (protein, listed as Micrurus mipartitus)
chain: B1 peptide
modifications: ends and bridges not checked
Turning to B3, in [1], the “displacing ^125I-rMmTX2 (in words)” value is reported as “equally potent”.

B4: rMmTX2: recombinant MmTX2 from a periplasmic expression system (protein)
peptide: B1 peptide with R33H
modifications: ends and bridges not checked
For B4, in [1], the “displacing ^125I-rMmTX2 (in words)” value is reported as “equally potent” and the Ki turned out to be 3.7 nM. In addition, in [15], the 50% lethal dose (LD50) was 0.010 mg/kg and the behavioral signs entry is listed as “reduced activity combined with severe seizures”. The flaccid paralysis entry in [16] (injected intravenously into mice) is recorded as “no flaccid paralysis”. In addition, the “activity when injected intravenously” value in data set [16] was “inactive”.

B5: Fas 2: animal toxin that targets AChE (protein, UniProt P0C1Z0 1-61, looked up)
Fasciculin-2: TMCYSHTTTSRAILTNCGENSCYRKSRRHPPKMVLGRGCGCPPGDDNLEVKCCTSPDKCNY
modifications: ends and bridges not checked
In the case of B5, the “competition with ^125I-rMmTX2” value in data set [1] (ligand 10 μM) was “does not compete”.

B6: sMmTX1-HRK: sMmTX1 mutated at 4His, 28Arg, 47Lys and acetylated at the N-terminus, SEQ ID NO: 21 (peptide)
chain: Ac-LTCHTCPFTTCPNSESCPGGQSICYQRRWEEHRGERIERRCVANCPKFGSHDTSLLCCTRDNCN
modifications: ends and bridges not checked
Take B6: the “effect on α1β2γ2 GABAA receptor currents” value is “currents are potentiated and receptor desensitization tends to accelerate” in data set [18] (100 nM muscimol + 100 nM toxin, −70 mV); “potentiating effect is diminished whereas desensitization effect is unaltered” in data set [18] (300 nM muscimol).
